Experimental data: patent publication US20180291096A1 (Janssen / Centocor, published 2018)
Changes are numbered by the printed parent chain.

T1: recombinant human IL-23 (hrIL-23), produced at Centocor (human, UniProt P29460 23-328)
T1 construct: p19-p40 heterodimer; also called rhIL-23; huIL-23
T1 sequence 1: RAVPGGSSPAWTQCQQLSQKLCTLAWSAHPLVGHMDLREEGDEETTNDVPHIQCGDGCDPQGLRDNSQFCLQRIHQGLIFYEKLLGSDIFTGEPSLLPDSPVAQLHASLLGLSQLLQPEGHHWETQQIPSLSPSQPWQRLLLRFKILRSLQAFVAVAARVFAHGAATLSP
T1 sequence 2: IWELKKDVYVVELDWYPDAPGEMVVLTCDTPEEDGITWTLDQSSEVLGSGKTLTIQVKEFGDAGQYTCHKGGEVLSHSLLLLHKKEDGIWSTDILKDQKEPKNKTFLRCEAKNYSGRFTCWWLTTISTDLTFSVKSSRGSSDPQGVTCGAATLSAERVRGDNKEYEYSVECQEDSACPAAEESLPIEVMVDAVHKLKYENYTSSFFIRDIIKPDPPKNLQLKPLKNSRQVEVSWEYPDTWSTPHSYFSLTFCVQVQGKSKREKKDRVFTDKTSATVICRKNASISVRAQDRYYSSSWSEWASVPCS

T2: recombinant human IL-12 (hrIL-12), produced at Centocor (human, UniProt P29459 23-219; P29460 23-328)
T2 construct: also called IL-12 CNTO
T2 sequence (looked up) 1: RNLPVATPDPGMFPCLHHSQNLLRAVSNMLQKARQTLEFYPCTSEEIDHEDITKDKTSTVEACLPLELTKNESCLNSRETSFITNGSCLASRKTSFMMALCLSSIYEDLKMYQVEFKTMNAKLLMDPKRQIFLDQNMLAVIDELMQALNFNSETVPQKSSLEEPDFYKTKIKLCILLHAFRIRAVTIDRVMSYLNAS
T2 sequence (looked up) 2: T1 sequence 2

B1: MOR05042 Fab (Fab, V domains shown)
VH: QVQLVQSGAEVKKPGESLKISCKGSGYSFSNYWIGWVRQMPGKGLEWMGIISPTGSSTWYSPSFQGQVTISADKSISTAYLQWSSLKASDTAMYYCARWYYKPFDVWGQGTLVTVSS
VL: DIVLTQPPSVSGAPGQRVTISCTGSSSNIGSGYDVHWYQQLPGTAPKLLIYGNSKRPSGVPDRFSGSKSGTSASLAITGLQSEDEADYYCSSWTPSSVVFGGGTKLTVL
notes: Fab
B2: MOR04649 Fab (Fab, V domains shown)
VH: B1 VH with S52D, T54S, G55N, S57Y, W59N
VL: B1 VL
notes: Fab
B3: MOR05045 Fab (Fab, V domains shown)
VH: B1 VH with S57A
VL: B1 VL
notes: Fab
B4: MOR04190 Fab (Fab, V domains shown)
VH: QVQLVQSGAEVKKPGSSVKVSCKASGGTFSSNYISWVRQAPGQGLEWMGGIIPIFGHANYAQKFQGRVTITADESTSTAYMELSSLRSEDTAVYYCARSKKGMYGGWTYPLMMFDLWGQGTLVTVSS
VL: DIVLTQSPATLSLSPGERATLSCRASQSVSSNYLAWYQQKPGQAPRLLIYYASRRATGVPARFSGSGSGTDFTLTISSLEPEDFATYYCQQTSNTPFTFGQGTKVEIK
notes: Fab
B5: MOR05038 Fab (Fab, V domains shown)
VH: QVQLVQSGAEVKKPGSSVKVSCKASGGTFSSNYISWVRQAPGQGLEWMGINAHLGGTWYAQKFQGRVTITADESTSTAYMELSSLRSEDTAVYYCARSKKGMYGGWTYPLMMFDLWGQGTLVTVSS
VL: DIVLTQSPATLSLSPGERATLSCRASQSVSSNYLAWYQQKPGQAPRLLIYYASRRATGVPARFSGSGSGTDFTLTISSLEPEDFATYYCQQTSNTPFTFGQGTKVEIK
notes: Fab
B6: MOR04083 Fab (Fab, V domains shown)
VH: QVQLVQSGAEVKKPGSSVKVSCKASGGTFSNYAISWVRQAPGQGLEWMGGIIPMFGYANYAQKFQGRVTITADESTSTAYMELSSLRSEDTAVYYCARDIYAGMDVWGQGTLVTVSS
VL: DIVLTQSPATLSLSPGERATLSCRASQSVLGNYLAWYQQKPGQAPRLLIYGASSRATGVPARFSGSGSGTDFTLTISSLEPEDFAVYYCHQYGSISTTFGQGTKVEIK
notes: Fab
B7: MOR05028 Fab (Fab, V domains shown)
VH: B6 VH with M54V, Y57F, A58T, N59H
VL: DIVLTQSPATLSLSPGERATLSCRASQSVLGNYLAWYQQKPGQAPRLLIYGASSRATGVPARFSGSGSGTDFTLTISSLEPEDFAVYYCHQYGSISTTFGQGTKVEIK
notes: Fab
B8: MOR04658 Fab (Fab, V domains shown)
VH: QVQLVESGGGLVQPGGSLRLSCAASGFTFSSFGMSWVRQAPGKGLEWVSNISSSGSSTYYADSVKGRFTISRDNSKNTLYLQMNSLRAEDTAVYYCARYWGTPYLMQFDNWGQGTLVTVSS
VL: DIALTQPASVSGSPGQSITISCTGTSSDVGGYNSVSWYQQHPGKAPKLMIYSVSSRPSGVSNRFSGSKSGNTASLTISGLQAEDEADYYCSSYDTNKPLVVFGGGTKLTVL
notes: Fab
B9: MOR04217 Fab (Fab, V domains shown)
VH: QVQLVESGGGLVQPGGSLRLSCAASGFTFSSYWITWVRQAPGKGLEWVSYISSSGSSTYYADSVKGRFTISRDNSKNTLYLQMNSLRAEDTAVYYCARGTFWSFGNYFANWGQGTLVTVSS
VL: DIVLTQSPATLSLSPGERATLSCRASQSIFYNLAWYQQKPGQAPRLLIYGASNRATGVPARFSGSGSGTDFTLTISSLEPEDFATYYCQQYSSEPVTFGQGTKVEIK
notes: Fab
B10: MOR05049 Fab (Fab, V domains shown)
VH: QVQLVESGGGLVQPGGSLRLSCAASGFTFSSFGMSWVRQAPGKGLEWVSGIEHKYLSYTTHYAASVKGRFTISRDNSKNTLYLQMNSLRAEDTAVYYCARYWGTPYLMQFDNWGQGTLVTVSS
VL: B8 VL
notes: Fab

Each binder was assayed against T1, recombinant human IL-23 (hrIL-23), … (assay: IL-23/IL-23R competition assay).
B1 was tested, and the IC50 was 0.06 nM. Binder B2 has an IC50 of 1.2 nM. Work on B3 yielded an IC50 of 0.05 nM. B4 was tested, and the IC50 was 1.3 nM. B5 gave an IC50 of 0.17 nM. In the case of B6, the IC50 is reported as 7.1 nM. B7 was tested, and the IC50 was 0.43 nM.

Each binder was assayed against T1, recombinant human IL-23 (hrIL-23), … (assay: hrIL-23/hIL-23R competition assay).
In the case of B2, the IC50 is reported as 0.2 nM. In the case of B4, the IC50 is reported as 4.8 nM. B6 showed an IC50 of 4.6 nM. B8 was tested, and the IC50 was 0.7 nM. B9 gave an IC50 of 16 nM.

The binders below were run against T1, recombinant human IL-23 (hrIL-23), … (assay: SET).
Binder B10 has a Kd of 0.007 nM. B8 gave a Kd of 4.3 nM.

Target: T1, recombinant human IL-23 (hrIL-23), …
Assay: SET
Remark: another data set of the same source
In the case of B1, the Kd is reported as 0.004 nM. In the case of B2, the Kd is reported as 1.1 nM. B3 was tested, and the Kd was 0.009 nM. B4 was tested, and the Kd was 4.4 nM. With B5 the Kd was 0.038 nM. B6 gave a Kd of 1.6 nM. B7 showed a Kd of 0.133 nM.

The binders below were run against T1, recombinant human IL-23 (hrIL-23), … (assay: Biacore, Fab capture).
B2 was tested, and the Kd was 7 nM. B4 gave a Kd of 11 nM. Work on B6 yielded a Kd of 16 nM. B8 gave a Kd of 11 nM. B9 showed a Kd of 41 nM.

The binders below were run against T2, recombinant human IL-12 (hrIL-12), … (assay: not told).
B1: no binding. B3: no binding. B10: no binding. B5: no binding. B7: no binding.

Target: T1, recombinant human IL-23 (hrIL-23), …
Assay: IL-23/IL-23R competition assay
Remark: another data set of the same source
B10 showed an IC50 of 0.39 nM. Work on B8 yielded an IC50 of 14 nM.
